Read-outs that look alike come from different tables or passages of the source.
B1: F0103265B04-FLAG3-HIS6 (VHH)
VHH: EVQLVESGGGLVQPGGSLRLSCAAPSFIFSNNYMEWYRQAPGKQRDWVARITGRGNTNYLDSVKGRFTISRDDAKNTVYLEIDSLKPEDTAVYYCSALWYGGRAWGKGTLVTVSS
B2: 69AVB (Fc fusion)
chain: EVQLVESGGGLAQPGGSLRLSCAASGPVFNINRMAWYRRAPGKQRELVAYVTPTGDISYTDSVKGRFTISRDGSKRWSLQMNSLTPEDTAVYYCRALLQPDSYSNTRTYWGQGTLVTVSS
notes: also called F010301656-5GS-Fc; F10301656* (ISVD with human IgG1 Fc); not shown: 5GS linker; human IgG1 Fc

Columns and labels:
huNav1.7α + β1 [1] = biological target: huNav1.7α + β1 (human); experiment: cell-based or functional assay
huNav1.7α [2] = biological target: T1, huNav1.7α (human, UniProt Q15858 1-1988); experiment: cell-based or functional assay
ratNav1.7α [3] = biological target: T2, ratNav1.7α (rat, UniProt O08562 1-1984); experiment: cell-based or functional assay
T2 sequence (O08562 whole entry): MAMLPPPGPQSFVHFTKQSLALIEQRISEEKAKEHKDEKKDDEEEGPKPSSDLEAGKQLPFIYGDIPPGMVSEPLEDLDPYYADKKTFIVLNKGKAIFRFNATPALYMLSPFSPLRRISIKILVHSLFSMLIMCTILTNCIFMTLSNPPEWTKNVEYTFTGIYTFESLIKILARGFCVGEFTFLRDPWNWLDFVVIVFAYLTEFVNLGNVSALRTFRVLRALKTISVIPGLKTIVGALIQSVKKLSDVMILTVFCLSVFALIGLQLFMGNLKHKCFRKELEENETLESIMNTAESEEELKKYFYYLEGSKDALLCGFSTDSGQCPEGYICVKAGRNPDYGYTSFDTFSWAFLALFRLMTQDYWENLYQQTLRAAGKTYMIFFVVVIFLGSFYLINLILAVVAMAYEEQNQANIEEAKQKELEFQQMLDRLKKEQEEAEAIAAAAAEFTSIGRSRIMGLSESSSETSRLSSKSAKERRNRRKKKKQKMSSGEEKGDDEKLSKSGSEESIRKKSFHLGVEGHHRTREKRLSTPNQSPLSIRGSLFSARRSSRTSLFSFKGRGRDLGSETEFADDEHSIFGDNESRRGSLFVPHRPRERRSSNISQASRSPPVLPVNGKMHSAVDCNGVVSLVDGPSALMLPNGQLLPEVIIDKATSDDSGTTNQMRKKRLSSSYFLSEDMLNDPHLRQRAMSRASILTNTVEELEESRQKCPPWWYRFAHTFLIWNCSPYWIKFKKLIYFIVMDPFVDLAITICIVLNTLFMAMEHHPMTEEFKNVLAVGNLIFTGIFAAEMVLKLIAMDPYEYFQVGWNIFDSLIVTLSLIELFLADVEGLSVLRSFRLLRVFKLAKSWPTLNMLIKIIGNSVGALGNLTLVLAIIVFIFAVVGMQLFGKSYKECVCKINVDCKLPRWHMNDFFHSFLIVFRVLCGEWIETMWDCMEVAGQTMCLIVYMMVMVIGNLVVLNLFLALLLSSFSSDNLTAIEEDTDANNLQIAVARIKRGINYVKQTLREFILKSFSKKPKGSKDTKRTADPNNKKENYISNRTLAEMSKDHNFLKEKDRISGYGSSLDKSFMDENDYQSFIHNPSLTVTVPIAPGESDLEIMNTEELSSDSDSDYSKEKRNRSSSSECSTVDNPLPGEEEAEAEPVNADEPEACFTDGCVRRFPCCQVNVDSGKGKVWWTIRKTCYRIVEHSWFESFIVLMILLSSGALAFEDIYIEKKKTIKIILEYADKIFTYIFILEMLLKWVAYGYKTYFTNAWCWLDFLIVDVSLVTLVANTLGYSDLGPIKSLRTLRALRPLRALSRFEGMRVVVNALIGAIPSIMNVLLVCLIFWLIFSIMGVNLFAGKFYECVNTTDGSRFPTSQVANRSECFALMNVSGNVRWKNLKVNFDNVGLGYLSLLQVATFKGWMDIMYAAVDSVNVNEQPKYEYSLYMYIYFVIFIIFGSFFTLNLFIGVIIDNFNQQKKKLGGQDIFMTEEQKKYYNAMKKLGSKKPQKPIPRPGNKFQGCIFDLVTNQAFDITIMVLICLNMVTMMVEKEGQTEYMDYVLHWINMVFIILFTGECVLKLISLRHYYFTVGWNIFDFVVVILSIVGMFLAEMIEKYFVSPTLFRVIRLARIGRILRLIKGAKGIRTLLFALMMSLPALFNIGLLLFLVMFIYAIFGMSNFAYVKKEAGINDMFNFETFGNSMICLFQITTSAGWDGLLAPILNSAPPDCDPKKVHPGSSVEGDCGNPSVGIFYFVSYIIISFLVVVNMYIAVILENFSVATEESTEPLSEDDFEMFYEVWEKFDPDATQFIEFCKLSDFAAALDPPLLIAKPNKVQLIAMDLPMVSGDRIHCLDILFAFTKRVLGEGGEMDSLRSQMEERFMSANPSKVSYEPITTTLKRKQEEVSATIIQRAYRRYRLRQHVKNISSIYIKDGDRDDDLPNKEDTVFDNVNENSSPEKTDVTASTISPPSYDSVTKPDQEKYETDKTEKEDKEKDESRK

huNav1.7α + β1 [4] = biological target: huNav1.7α + β1 (human); experiment: cell-based or functional assay; remark: listed apart in the source
rhNav1.7α + β1-β2-β3 [5] = biological target: rhNav1.7α + β1-β2-β3 (rhesus monkey); experiment: cell-based or functional assay
ratNav1.7α [6] = biological target: T2, ratNav1.7α; experiment: cell-based or functional assay; remark: listed apart in the source
huNav1.7α + β1 [7] = biological target: huNav1.7α + β1 (human); experiment: cell-based or functional assay; remark: listed apart in the source
rhNav1.7α + β1-β2-β3 [8] = biological target: rhNav1.7α + β1-β2-β3 (rhesus monkey); experiment: cell-based or functional assay; remark: listed apart in the source
huNav1.7α [9] = biological target: T1, huNav1.7α; experiment: binding FACS, HEK
huNav1.7α + β1 [10] = biological target: T3, huNav1.7α + β1 (human); experiment: binding FACS, HEK
T3 construct: HEK293 cells; also called huNav1.7-beta1; huNav1.7-β1

huNav1.7α + β1 [11] = biological target: T3, huNav1.7α + β1; experiment: cell-based or functional assay; remark: listed apart in the source
rhNav1.7α + β1-β2-β3 [12] = biological target: rhNav1.7α + β1-β2-β3 (rhesus monkey); experiment: cell-based or functional assay; remark: listed apart in the source

Binder | Qpatch IC50 (huNav1.7α + β1 [1]) [nM] | Qpatch IC50 [M], HEK cells (huNav1.7α [2]) [M] | Qpatch IC50 (ratNav1.7α [3]) [nM] | Qpatch IC50 (huNav1.7α + β1 [4]) [nM] | Qpatch IC50 (rhNav1.7α + β1-β2-β3 [5]) [nM] | QPatch electrophysiology IC50 [M], HEK cells (ratNav1.7α [6]) [M] | Human SA ratio of QPatch IC50 (huNav1.7α + β1 [7]) | QPatch electrophysiology IC50 [M], HEK cells (huNav1.7α + β1 [7]) [M] | QPatch electrophysiology IC50 [M], HEK cells, + 10 µM human SA (huNav1.7α + β1 [7]) [M] | QPatch electrophysiology IC50 [M], HEK cells (rhNav1.7α + β1-β2-β3 [8]) [M] | EC50 (huNav1.7α [9]) [nM] | EC50 (huNav1.7α + β1 [10]) [nM] | Qpatch IC50 [M], HEK cells (huNav1.7α + β1 [11]) [M] | Qpatch IC50 [M], HEK cells (rhNav1.7α + β1-β2-β3 [12]) [M]
B1 | 120 | 1.2e-07 | – | – | – | – | – | – | – | – | – | – | – | –
B2 | – | – | 21 | 13 | 8 | 2.1e-08 | 2 | 1.3e-08 | 2.6e-08 | 8e-09 | 11 | 9 | 1.3e-08 | 8e-09

— patent publication US20240002497A1 (Merck Sharp & Dohme, published 2024)
